From patent publication US20210061891A1

B1: Ab7955 (antibody, V domains shown)
VH: LVESGGGVVRPGRSLRLSCVASGFTFNAYGMHWVRQGPGKGLEWLAVISYEGKTVYYADSVKDRFTISRDNSRNTVSLHLNNLRGEDTAVYYCAKGSASAAVLQHWGQGTLVSVTS
VL: MTQSPGSLAVSLGSRATINCKSSRSLLYRSNNKNYLAWYQQKPGQSPRLLIYWASSRESGVPDRFSGGGSGTSFTLTISSLQAEDVAVYYCQQYFNPPWTFGQGTKVEIK
B2: Ab7960/293i (antibody, V domains shown)
VH: LVESGGGVVQPGKSLRLSCVASGFSFSTYGMHWVRQAPGKGLEWVAVMSFDGKTKYYADSVKGRFTISRDNPKNTLYLQMNSLRSEDTAVYYCAKGGAAAAVFDSWGPGILLTVSS
VL: MTQSPNSLAVSLGGRATINCKASQSILYRSNNKNYLAWYQHKAGQPPKLLIYWASTRESGVPERFSGSGSRTDFTLTINGLQAEDVAVYYCQQYYNPPWTFGQGTKVEIK
B3: Ab7961/293i (antibody, V domains shown)
VH: LVESGGGVVQPGKSLRLSCVASGFTFSSYGMHWVRQAPGKGLEWVAVMSFDGKTKYYADSVKGRFTISRDNPKNTLYLQMNSLRSEDTAVYYCAKGGAAAAVFDSWGQGILLTVSS
VL: MTQSPNSLAVSLGGRATINCKTSQSILYRSNNKNYLAWYQHKSGQPPKLLIYWASTRESGVPDRFSGSGSRTDFTLTISGLQAEDVAVYYCQQYYNPPWTFGQGTKVEIK
B4: Ab7979 (antibody, V domains shown)
VH: LVESGGGVVQPGKSLRLSCVASGFTFSTYGMHWVRQAPGKGLEWVAVMSFDGKTKYYADSVKGRFTISRDNPKNTLYLQMNSLRSEDTAVYYCAKGGAAAAVFDSWGQGILLTVSS
VL: MTQSPNSLAVSLGGRATINCKTSQSILYRSNNKNYLAWYQHKPGQPPKLLIYWASTRESRVPDRFSGSGSRTDFTLTISGLQAEDVAVYYCQQYYNPPWTFGQGTKVEIK

Columns and labels:
Assay in all cases: ELISA on streptavidin-immobilized biotinylated 15mer peptides; area under the signal vs antibody concentration curve
[1] = target: residue mutated to A: I
[2] = target: residue mutated to A: T
[3] = target: residue mutated to A: N

| Binder | percent of binding to the natural peptide (AUC) [2] [%] | also measured |
| --- | --- | --- |
| B1 |  | percent of binding to the natural peptide (AUC) [1]: 8% |
| B2 | 4 |  |
| B3 |  | percent of binding to the natural peptide (AUC) [3]: 4% |
| B4 | 34 |  |
